This data set has as its system RsmA (His6-Thb-RsmA) (Pseudomonas aeruginosa). The experiment in a line: EMSA. To be noted: 17 nt 3' extension hybridized to DNA primer. For orientation: In EMSA bound probe runs differently from free probe, usually more slowly.

This passage reports Kd results from PMC4950607.

The Kd is the concentration at which binding is half-saturated.

For the substance RsmW sRNA, 3'-extended, labeled, the Kd stood at 11.5 nM.
